Our source for the Kd values is PMC13638050.

The target of the experiment is H1 stem (recombinant HA stem construct #4900 designed based on H1N1 A/Brisbane/59/2007 HA) (influenza A virus H1N1 A/Brisbane/59/2007). As to the kind of experiment: BLI. Background: BLI is a label-free optical method that tracks binding on a fibre tip over time.

A word on the Kd: it is the constant that tells how readily two partners part at equilibrium. On to somatic CR9114 Fab, for which the dissociation constant (Kd) was less than 0.1 nM.
